Experimental findings from publication PMC4203850, “Conformational Antibody Binding to a Native, Cell-Free Expressed GPCR in Block Copolymer Membranes” (PLoS ONE, 2014) are described below.

This test concerns the target T1, radiolabeled (I-125) SDF-1α (stromal cell-derived factor-1 alpha) (UniProt P48061-2 22-89, 125I radiolabel (position not given)).
T1 construct: SDF-1α (stromal cell-derived factor-1 alpha), the natural ligand of CXCR4; the alpha isoform
As to the kind of experiment: radioligand binding; saturation assay: constant CXCR4-ACM concentration, varying 125I-SDF, with and without 0.5 µM unlabeled SDF; 96-well plate, filtration; GraphPad Prism. Particulars: both partners purified.

T1 sequence (P48061 22-89): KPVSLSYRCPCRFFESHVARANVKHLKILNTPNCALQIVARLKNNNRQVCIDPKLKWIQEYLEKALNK

B1: CXCR4 embedded in polymersome membranes (CXCR4-ACMs) (receptor, UniProt P61073 1-352, looked up)
chain: MEGISIYTSDNYTEEMGSGDYDSMKEPCFREENANFNKIFLPTIYSIIFLTGIVGNGLVILVMGYQKKLRSMTDKYRLHLSVADLLFVITLPFWAVDAVANWYFGNFLCKAVHVIYTVNLYSSVLILAFISLDRYLAIVHATNSQRPRKLLAEKVVYVGVWIPALLLTIPDFIFANVSEADDRYICDRFYPNDLWVVVFQFQHIMVGLILPGIVILSCYCIIISKLSHSKGHQKRKALKTTVILILAFFACWLPYYIGISIDSFILLEIIKQGCEFENTVHKWISITEALAFFHCCLNPILYAFLGAKFKTSAQHALTSVSRGSSLKILSKGKRGGHSSVSTESESSSFHSS
notes: Receptor sits in polybutadiene-b-poly(ethylene oxide) polymersome membrane with 1% DSPE-PEG-biotin; The introduction speaks in general of 'native, full-length membrane proteins' for this approach; also called C4-ACMs; native CXCR4
One may read the Kd as a measure of binding affinity in units of concentration. Higher therefore signals a looser complex. In turn, B1 had a Kd of 8.4 nM.
